For two substances, Kd and koff results are on record in article PMC10858898.

Where “and” joins values, the source holds several entries; their conditions need not be identical. Equal values may be shown once.

Assay [1] addresses MprE7-TH1 chimeric proteusin peptide. As to the kind of experiment: NMR titration; unlabeled SrpI titrated into 42.1 µM 15N-MprE7-TH1, MprE7-TH1:SrpI molar ratios 1:0 to 1:1, FAD 1:1 with SrpI; 100 mM NaCl, 20 mM sodium phosphate pH 7.5, 10% D2O; 25 °C, 800 MHz; TITAN 2D lineshape analysis with a two-state binding model; apparent KD; fits of subsets of the seven residues.
Assay [2] has the same target. As to the kind of experiment: NMR titration; unlabeled SrpI titrated into 42.1 uM 15N-labeled MprE7-TH1, MprE7-TH1:SrpI molar ratios 1:0 to 1:1, FAD at 1:1 with SrpI; 100 mM NaCl, 20 mM sodium phosphate pH 7.5, 10% D2O, 25 °C; TITAN 2D lineshape analysis, two-state binding model; apparent.

A word on the koff: it is the first-order rate constant of dissociation.

Consider SrpI brominase (enzyme), for which the Kd in assay [1] was 21.9 µM and 36.9 µM and 22 µM.
“SrpI brominase (flavin-dependent RiPP halogenase) (enzyme)”: in assay [2], the Kd came to 24.9 µM and the koff is 3.7 s⁻¹.
